Results reported in patent publication US20210340217A1, “NOVEL PEPTIDES AND COMBINATION OF PEPTIDES FOR USE IN IMMUNOTHERAPY AGAINST OVARIAN CANCER AND OTHER CANCERS” (Immatics Biotechnologies GmbH, priority 2017, published 2021).

Biological target: HLA-B*07:02 (Homo sapiens, UniProt P01889)
Experiment: MHC binding assay (UV-ligand exchange, beta2m ELISA)
Conditions: peptide exchange yield
Source text: Candidate peptides for T cell based therapies according to the present invention were further tested for their MHC binding capacity (affinity). The individual peptide-MHC complexes were produced by UV-ligand exchange, where a UV-sensitive peptide is cleaved upon UV-irradiation, and exchanged with the peptide of interest as analyzed. Only peptide candidates that can effectively bind and stabilize the peptide-receptive MHC molecules prevent dissociation of the MHC complexes. To determine the yield of the exchange reaction, an ELISA was performed based on the detection of the light chain (β2m) of stabilized MHC complexes. The assay was performed as generally described in Rodenko et al. (Rodenko et al., 2006).
96 well MAXISorp plates (NUNC) were coated over night with 2 ug/ml streptavidin in PBS at room temperature, washed 4× and blocked for 1 h at 37° C. in 2% BSA containing blocking buffer. Refolded HLA-A*02:01/MLA-001 monomers served as standards, covering the range of 15-500 ng/ml. Peptide-MHC monomers of the UV-exchange reaction were diluted 100-fold in blocking buffer. Samples were incubated for 1 h at 37° C., washed four times, incubated with 2 ug/ml HRP conjugated anti-β2m for 1h at 37° C., washed again and detected with TMB solution that is stopped with […]. Absorption was measured at 450 nm. Candidate peptides that show a high exchange yield (preferably higher than 50%, most preferred higher than 75%) are generally preferred for a generation and production of antibodies or fragments thereof, and/or T cell receptors or fragments thereof, as they show sufficient avidity to the MHC molecules and prevent dissociation of the MHC complexes.

Substance | Peptide exchange
32 (SPNKGTLSV; listed as Homo sapiens) [compound 32] | “+++” (>50 = +++)
33 (SPTFHLTL; listed as Homo sapiens) [compound 33] | “+++” (>50 = +++)
34 (LPRGPLASLL; listed as Homo sapiens) [compound 34] | “+++” (>50 = +++)
35 (FPDNQRPAL; listed as Homo sapiens) [compound 35] | “+++” (>50 = +++)
36 (APAAWLRSA; listed as Homo sapiens) [compound 36] | “++” (>20% = ++)
37 (RPLFQKSSM; listed as Homo sapiens) [compound 37] | “+++” (>50 = +++)
38 (SPHPVTALLTL; listed as Homo sapiens) [compound 38] | “+++” (>50 = +++)
39 (RPAPFEVVF; listed as Homo sapiens) [compound 39] | “+++” (>50 = +++)
40 (KPGTSYRVTL; listed as Homo sapiens) [compound 40] | “+++” (>50 = +++)
41 (RVRSRISNL; listed as Homo sapiens) [compound 41] | “+++” (>50 = +++)
118 (SPASRSISL; listed as Homo sapiens) [compound 118] | “+++” (>50 = +++)
119 (APLPRPGAVL; listed as Homo sapiens) [compound 119] | “+++” (>50 = +++)
120 (RPAMNYDKL; listed as Homo sapiens) [compound 120] | “++” (>20% = ++)
121 (VPNQSSESL; listed as Homo sapiens) [compound 121] | “+++” (>50 = +++)
122 (YPGFPQSQY; listed as Homo sapiens) [compound 122] | “++” (>20% = ++)
123 (KPSESIYSAL; listed as Homo sapiens) [compound 123] | “+++” (>50 = +++)
124 (LPSDSHFKITF; listed as Homo sapiens) [compound 124] | “+++” (>50 = +++)
125 (VPVYILLDEM; listed as Homo sapiens) [compound 125] | “++” (>20% = ++)
126 (KPGPEDKL; listed as Homo sapiens) [compound 126] | “++” (>20% = ++)
127 (APRAGSQVV; listed as Homo sapiens) [compound 127] | “+++” (>50 = +++)
128 (YPRTITPGM; listed as Homo sapiens) [compound 128] | “+++” (>50 = +++)

Substance | Peptide exchange
129 (APRPASSL; listed as Homo sapiens) [compound 129] | “+++” (>50 = +++)
130 (FPRLVGPDF; listed as Homo sapiens) [compound 130] | “+++” (>50 = +++)
131 (APTEDLKAL; listed as Homo sapiens) [compound 131] | “+++” (>50 = +++)
132 (IPGPAQSTI; listed as Homo sapiens) [compound 132] | “++” (>20% = ++)
133 (MPNLPSTTSL; listed as Homo sapiens) [compound 133] | “+++” (>50 = +++)
134 (RPIVPGPLL; listed as Homo sapiens) [compound 134] | “+++” (>50 = +++)
135 (RVRSTISSL; listed as Homo sapiens) [compound 135] | “+++” (>50 = +++)
136 (SPFSAEEANSL; listed as Homo sapiens) [compound 136] | “+++” (>50 = +++)
137 (SPGATSRGTL; listed as Homo sapiens) [compound 137] | “+++” (>50 = +++)
138 (SPMATTSTL; listed as Homo sapiens) [compound 138] | “+++” (>50 = +++)
139 (SPQSMSNTL; listed as Homo sapiens) [compound 139] | “+++” (>50 = +++)
140 (SPRTEASSAVL; listed as Homo sapiens) [compound 140] | “+++” (>50 = +++)
141 (SPMTSLLTSGL; listed as Homo sapiens) [compound 141] | “+++” (>50 = +++)
142 (TPGLRETSI; listed as Homo sapiens) [compound 142] | “++” (>20% = ++)
143 (SPAMTSTSF; listed as Homo sapiens) [compound 143] | “++” (>20% = ++)
144 (SPSPVSSTL; listed as Homo sapiens) [compound 144] | “+++” (>50 = +++)
145 (SPSSPMSTF; listed as Homo sapiens) [compound 145] | “++” (>20% = ++)
146 (IPRPEVQAL; listed as Homo sapiens) [compound 146] | “+++” (>50 = +++)
147 (APRWFPQPTVV; listed as Homo sapiens) [compound 147] | “+++” (>50 = +++)
148 (KPYGGSGPL; listed as Homo sapiens) [compound 148] | “+++” (>50 = +++)
149 (GPREALSRL; listed as Homo sapiens) [compound 149] | “+++” (>50 = +++)

The next lines start with the values.

Peptide exchange | Substance
“++” (>20% = ++) | 293 (VPDSGATATAY; listed as Homo sapiens) [compound 293]
“+++” (>50 = +++) | 294 (YPLRGSSIF; listed as Homo sapiens) [compound 294]
“+++” (>50 = +++) | 295 (YPLRGSSIFGL; listed as Homo sapiens) [compound 295]
“++” (>20% = ++) | 296 (YPLRGSSI; listed as Homo sapiens) [compound 296]
“+++” (>50 = +++) | 297 (TVREASGLL; listed as Homo sapiens) [compound 297]
“++” (>20% = ++) | 298 (YPTEHVQF; listed as Homo sapiens) [compound 298]
“++” (>20% = ++) | 299 (HPGSSALHY; listed as Homo sapiens) [compound 299]
“+++” (>50 = +++) | 300 (IPMAAVKQAL; listed as Homo sapiens) [compound 300]
“++” (>20% = ++) | 301 (SPRRSPRISF; listed as Homo sapiens) [compound 301]
“+++” (>50 = +++) | 302 (RVEEVRALL; listed as Homo sapiens) [compound 302]
“+++” (>50 = +++) | 303 (LPMWKVTAF; listed as Homo sapiens) [compound 303]
“+++” (>50 = +++) | 304 (LPRPGAVL; listed as Homo sapiens) [compound 304]
“++” (>20% = ++) | 305 (TPWAESSTKF; listed as Homo sapiens) [compound 305]
“++” (>20% = ++) | 306 (APVIFSHSA; listed as Homo sapiens) [compound 306]
“+++” (>50 = +++) | 307 (LPYGPGSEAAAF; listed as Homo sapiens) [compound 307]
“++” (>20% = ++) | 308 (YPEGAAYEF; listed as Homo sapiens) [compound 308]

Peptide exchange | Substance
“++++” (>75% = ++++) | 309 (FPQSQYPQY; listed as Homo sapiens) [compound 309]
“++” (>20% = ++) | 311 (RPLFYVVSL; listed as Homo sapiens) [compound 311]
“+++” (>50 = +++) | 312 (LPYFREFSM; listed as Homo sapiens) [compound 312]
“+” (>10% = +) | 313 (KVKSDRSVF; listed as Homo sapiens) [compound 313]
“+++” (>50 = +++) | 314 (VPDQPHPEI; listed as Homo sapiens) [compound 314]
“+++” (>50 = +++) | 315 (SPRENFPDTL; listed as Homo sapiens) [compound 315]
“++” (>20% = ++) | 316 (EPKTATVL; listed as Homo sapiens) [compound 316]
“+++” (>50 = +++) | 317 (FPFQPGSV; listed as Homo sapiens) [compound 317]
“+++” (>50 = +++) | 318 (FPNRLNLEA; listed as Homo sapiens) [compound 318]
“++++” (>75% = ++++) | 319 (SPAEPSVYATL; listed as Homo sapiens) [compound 319]
“+++” (>50 = +++) | 320 (FPMSPVTSV; listed as Homo sapiens) [compound 320]
“++” (>20% = ++) | 321 (SPMDTFLLI; listed as Homo sapiens) [compound 321]
“++” (>20% = ++) | 322 (SPDPSKHLL; listed as Homo sapiens) [compound 322]
“+++” (>50 = +++) | 323 (RPMPNLRSV; listed as Homo sapiens) [compound 323]
“++” (>20% = ++) | 324 (VPYRVVGL; listed as Homo sapiens) [compound 324]
“+++” (>50 = +++) | 325 (GPRNAQRVL; listed as Homo sapiens) [compound 325]
